Reference: patent US20080138280A1, “Composition and Methods For Inhibiting Cell Survival” (The Cleveland Clinic Foundation, priority 2003, published 2008)

B1: Apo2L/TRAIL: tumor necrosis factor-related apoptosis-inducing ligand; trimeric recombinant human Apo2L/TRAIL (Genentech) (protein, UniProt P50591 1-281, looked up)
Tumor necrosis factor ligand …: MAMMEVQGGPSLGQTCVLIVIFTVLLQSLCVAVTYVYFTNELKQMQDKYSKSGIACFLKEDDSYWDPNDEESMNSPCWQVKWQLRQLVRKMILRTSEETISTVQEKQQNISPLVRERGPQRVAAHITGTRGRSNTLSSPNSKNEKALGRKINSWESSRSGHSFLSNLHLRNGELVIHEKGFYYIYSQTYFRFQEEIKENTKNDKQMVQYIYKYTSYPDPILLMKSARNSCWSKDAEYGLYSIYQGGIFELKENDRIFVSVTNEHLIDMDHEASFFGAFLVG

What was measured:
[1] = system: NF-κB DNA binding activity; experiment: Electrophoretic mobility shift assay (EMSA) of NF-κB DNA binding activity, A375 cells; format: cell-based, human; settings: NO donor 100 μM pre-treatment 16 h, Apo2L/TRAIL 100 ng/ml 1 h
Method: Electrophoretic mobility shift assay (EMSA). These methods apply generally to FIGS. 5, 9-10 which employ EMSA analysis. In FIG. 5, A375 cells were treated with NO donors (NO-Cbl, NOC-18, SNAP, 100 μM, 16 h), or with Apo2L/TRAIL (100 ng/ml) or TNF-α (20 ng/ml) for 1 h, or with the combination of NO donors (16 h) followed by Apo2L/TRAIL or TNF-α (1 h). Plates were washed twice with ice-cold PBS. Cells were resuspended in cold 1× lysis buffer (20 mM HEPES, 20 mM NaF, 1 mM Na3VO4, 1 mM EDTA, 1 mM DTT, 100 mM NaCl, 10% glycerol and protease inhibitors) and incubated on ice for 30 min followed by centrifugation at 4° C. at 10,000 rpm for 10 min. Supernatants were transferred to fresh tubes and protein concentrations were assessed using the Bradford method (Bio-RAD protein assay, BioRad, Hercules, Calif.). The NF-κB consensus binding sequence (5′[…] 3′) from the IFN-β gene promoter was end-labeled with γ^32P dATP ([…]) using T4 polynucleotide kinase. DNA binding reactions were performed in 20 μl volume containing 10 μg protein, 20 mM HEPES, 10 mM KCl, 0.1% NP-40, 0.5 mM DIT and 10% glycerol. The binding reaction was performed for 20 min at 25° C. Complexes were separated from the free probe on 6% non-denaturing polyacrylamide gels in 0.5×TBE buffer at 200 V for 2 h. Gels were dried and exposed to film.
Inhibition of NF-κB survival signaling by NO-Cbl. Because NF-κB is an important cell survival regulator, we examined the effects of NO-Cbl on NF-κB DNA binding activity. The NF-κB binding sequence from the IFN-β gene promoter was used as a probe to assess DNA binding activity. A375 cells were treated with TNF-α (20 ng/ml), Apo2L/TRAIL (100 ng/ml) or NO-Cbl (100 μM). FIG. 5, illustrates an Electrophoretic Mobility Shift Assay (EMSA) of NF-κB DNA binding activity. Pre-treatment of A375 cells with NO-Cbl inhibited the NF-κB DNA binding activity induced by Apo2L/TRAIL and TNF-α. […] NF-κB-luc transfected A375 cells were pre-treated with NO-Cbl followed by Apo2L/TRAIL or TNF-α. […] Cell lysates were analyzed for NF-κB-luc reporter activity. […]

[2] = system: phospho-IκBα in A375 cells; experiment: Western blot analysis of IκBα phosphorylation; format: cell-based, human; settings: pre-treatment 100 μM, Apo2L/TRAIL 100 ng/ml
Method: Gel Electrophoresis and Immunoblot analyses. Please see FIG. 4. Whole cell lysates were prepared in 1× lysis buffer (50 mM Tris-Cl, pH 8.0, 1% Triton×100, 10% glycerol, 1 mM EDTA, 250 mM NaCl, 1 mM DTT, 1 mM PMSF, 10 μg/ml aprotinin, 10 μg/ml leupeptin, and 10 μg/ml pepstatin) for subsequent immunoblotting studies. The SDS-PAGE was conducted by using the Laemmli buffer system and 12% polyacrylamide gels. Proteins were transferred onto PVDF membranes by the semidry method (Trans Blot SD, BioRad, Hercules, Calif.). Binding of the primary and secondary antibodies was performed according to standard protocols. Membranes were immunoblotted with pAb to caspase-3, caspase-8, XIAP (BD-Pharmingen, San Diego, Calif.), PARP (BioMOL, Plymouth Meeting, Pa.), cIAP-1, FLIP, pIκBα and IκBα (Cell Signaling, Beverly, Mass.) followed by incubation with HRP conjugated secondary antibodies (Pierce, Rockford, Ill.). Immunoreactive bands were visualized by using enhanced chemiluminescence (Perkin Elmer, Boston, Mass.). Equal protein loading was confirmed by reprobing with monoclonal anti-actin antibody (Sigma Chemicals Co, St. Louis, Mo.). All immunoblots in this study were repeated 3 times with reproducible results.
NO-Cbl treatment affected the phosphorylation state of IκBα, the prototypic inhibitor of NF-κB. Western blot analysis was performed to assess levels of phospho-IκBα and IκBα. FIG. 6 is a Western blot analysis of IκB levels and IκBα phosphorylation. IκBα and phospho-IκBα protein levels were determined in A375 whole cell lysates. […] NO-Cbl, NOC-18, and SNAP pre-treatment all inhibited Apo2L/TRAIL-induced IκBα phosphorylation.

NF-κB signaling = experiment: Inhibition of NF-κB signaling by NO donors; format: cell-based; settings: summary statement
Source text: SNAP, SNP (nitroprusside) and NOC-18 inhibit NF-κB signaling.

[3] = system: CMN1 (normal melanocytes); experiment: Sulforhodamine B cell growth assay, normal cells; format: cell-based, human
Method: (§1) Cell Culture treatments. Cells were maintained in RPMI or DMEM (Mediatech, Herndon, Va.) containing 5% fetal bovine serum (Hyclone, Logan, Utah) and 1% Antibiotic-Antimycotic (GEBCO, Invitrogen Carlsbad, Calif.) as recommended per the American Type Culture Collection media protocol for each cell line. Cells were maintained in 5% CO2 at 37° C. in a humidified tissue culture incubator. Primary non-tumorigenic […] cell lines (DMN-1 and CMN-1), and human foreskin fibroblasts (HFF; CCF, Cleveland, Ohio) were cultured in DMEM-F12 medium supplemented with 10% FBS. Cells were confirmed as mycoplasma free.
(§2) Sulforhodamine B Cell Growth Assay. Cells were harvested with 0.5% trypsin/0.53 mM EDTA, washed with PBS and resuspended in media containing 10% FBS. Cells were plated in 96-well plates in 0.2-ml aliquots. Cells were allowed to adhere to the plate for 4 h and then NO-Cbl was added in different concentrations to the assay plate. A minimum of four were performed for each treatment. After 16 h, various chemotherapeutic agents including cytokines were added at different concentrations. Growth was monitored by the sulforhodamine B (SRB; Sigma Chemical, St. Louis, Mo.) colorimetric assay. After 36 h, the medium was removed, and the cells were fixed with 10% trichloroacetic acid and stained with SRB. Bound dye was eluted from the cells with 10 mM Tris-HCl (pH 10.5) and absorbance was measured at 570 nm using a Lab systems Multiskan RC 96-well plate reader (Lab Systems Multiscan RC, Thermo Lab Systems, Franklin, Mass.). To quantify the growth of the cells, the experimental absorbance values (Aexp) were compared with initial absorbance readings representing the starting cell numbers (Aini). To determine the starting cell number, an additional 96-well plate was seeded with cells and fixed at the beginning of the experiment. After 5 days growth, the untreated control cells and drug treated cells were fixed and stained with SRB. The absorbances derived from the initial plate and from the untreated cells at the end of the growth period (Afin) were defined as 0% and 100% growth, respectively. The percentage control growth (100%×[Aexp−Aini]/[Afin−Aini]) is expressed as a percentage of untreated controls.
(§3) Anti-tumor effects of NO-Cbl, Apo2L/TRAIL, and the combination iii vitro. NO-Cbl enhances the anti-cellular effects of Apo2L/TRAIL against malignant Apo2L/TRAIL-resistant cell lines. First the antiproliferative effects of three melanoma lines A375, WM9, and WM3211 (previously reported to be resistant to Apo2L/TRAIL) were measured. Although Apo2L/TRAIL was used as the chemotherapeutic agents, a wide range of anti-cancer drugs and techniques would be enhanced by the NO based cobalamin compounds due to their effective inhibition of the cell survival mechanism. Such other chemotherapeutic agents are tested in the following examples. […] The SRB antiproliferative assay, used by the National Cancer Institute (NCI) to evaluate new chemotherapeutic agents was used herein. Median effect analysis was used to analyze drug interactions between NO-Cbl and Apo2L/TRAIL. Cells were pre-treated with NO-Cbl for 16 h followed by Apo2L/TRAIL for 24 h.
(§4) The effects of nitrosylcobalamin (NO-Cbl), Apo2L/TRAIL, and the combination on the proliferation of melanoma cell lines A375, WM9, and WM3211 and normal cell lines CMN1, DMN1, and fibroblasts were observed. Cells were treated with NO-Cbl, Apo2L/TRAIL, or pre-treated with NO-Cbl followed by Apo2L/TRAIL for three days, and growth was measured by the colorimetric sulforhodamine B assay. Data points were generated to represent the mean of four replicates±standard error of the mean (SEM). Synergy between NO-Cbl and Apo2L/TRAIL was determined by median effect analysis, (combination index >1 indicates antagonism, =1 indicates additivity, and <1 indicates synergy). The combination index is represented in FIG. 1 and as the combination index observed at the specified concentrations. […]

[4] = system: DMN1 (normal melanocytes); experiment: Sulforhodamine B cell growth assay, normal cells; format: cell-based, human
Method: as §1, §2, §3, §4

normal fibroblasts = experiment: Sulforhodamine B cell growth assay, normal cells; format: cell-based, human
Method: as §1, §2, §3, §4

A375 melanoma xenografts = experiment: Growth of subcutaneous A375 xenografts in nude mice; format: in vivo
Source text: In vivo experiments. Please see FIG. 2. The Institutional Animal Care and Use Committee at the Cleveland Clinic Foundation approved all procedures for animal experimentation. Five week-old NCR male athymic nude homozygous (nu/nu) mice (Taconic, Germantown, N.Y.) were inoculated with A375 tumors. Each experimental group contained 4 mice, each mouse bearing two tumors, on opposite flanks. There were four experimental groups (untreated, single agents, and the combination). Cultured tumor cells (4×10^6) were inoculated into flanks in the mid-axillary line. NO-Cbl was given twice daily (50 mg/kg s.c.) and recombinant trimeric Apo2L/TRAIL (50 mg/kg s.c.) was administered every other day, starting on day 2. Tumor volume was measured three times a week using the formula for a prolate spheroid: (4/3) πab^2 where 2a=major axis, 2b=minor axis. Formalin-fixed sections were processed by the Cleveland Clinic Histology Core. Sections were stained with hematoxylin and eosin and evaluated for pathologic changes in a blinded fashion.
Anti-tumor effects of NO-Cbl, Apo2L/TRAIL, and the combination in vivo. To test drug activity in vivo, subcutaneous A375 xenografts were inoculated in nude mice. FIG. 2. illustrates the effect of NO-Cbl, Apo2L/TRAIL and the combination on the growth of A375 melanoma xenografts. NCR male athymic nude (nulnu) mice (n=4 per group) were injected subcutaneously with 4×10^6 A375 cells. Drug treatments began on day two (2) after injection of tumor cells. NO-Cbl was administered twice daily for the duration of the study. Apo2L/TRAIL was administered every other day. The control mice received phosphate buffered saline. The tumor volume was measured three times per week. Data points represent the mean tumor volume (in cubic mm)±SEM. Daily drug treatments began on day 2 following implantation, at which time tumors were both visible and palpable. Untreated control tumors grew unimpeded. After 25 days, the tumors from mice treated with NO-Cbl were 67.4% smaller than the control tumors (p≦0.0002) and tumors from mice treated with Apo2L/TRAIL were 89.4% smaller than the control tumors (p≦0.00001). The tumors from mice treated with the combination of NO-Cbl and Apo2L/TRAIL were 95.7% smaller than the control tumors (p≦0.000005).

A375 cells = experiment: TUNEL apoptosis assay; format: cell-based, human; settings: single agent, 36 h; NO-Cbl 100 μM or Apo2L/TRAIL 100 ng/ml
Method: TUNEL assay. Please see FIG. 3. A375 cells were cultured for 36 h and exposed to various treatments (control, NO-Cbl, Apo2L/TRAIL and NO-Cbl+Apo2L/TRAIL. Apoptotic cells were detected by TUNEL (terminal deoxynucleotidyltransferase-mediated dUTP-biotin nick end-labeling) staining using a commercially available kit (APO-BRDU kit, BD-Pharmingen, San Diego, Calif.). Cells were processed according to the manufacturer's recommended protocol. The percentage of FITC-positive cells was analyzed by fluorescent activated cell scanning (FACS, Becton Dickinson, Facsvantage, San Diego, Calif.).
Cell line A375 has a defect in endogenous TRAIL gene induction therefore, additive cellular responses from exogenous TRAIL/Apo2L were avoided. TUNEL assays of A375 cells treated in vitro with NO-Cbl, Apo2L/TRAIL, or the combination were performed. FIG. 3 illustrates a TUNEL apoptosis assay in accordance with the present invention. A375 cells were treated with NO-Cbl, Apo-2L/TRAIL, and the combination. […] The highest levels of apoptosis were observed when cells were pre-treated with NO-Cbl followed by Apo2L/TRAIL treatment. Treatment for 36 h with NO-Cbl (100 μM) or Apo2L/TRAIL (100 ng/ml) induced 6.2% and 5.4% TUNEL-positive cells, respectively.

Molecule | NF-κB DNA binding activity induced by Apo2L/TRAIL [1] | IκBα phosphorylation induced by Apo2L/TRAIL [2] | NF-κB signaling (NF-κB signaling) | antiproliferative effect on normal cells [3] | antiproliferative effect on normal cells [4] | antiproliferative effect on normal cells (normal fibroblasts) | tumor regression (A375 melanoma xenografts; A375 xenografts, nude mice) | tumors smaller than the control tumors (A375 melanoma xenografts; after 25 days, NO-Cbl 50 mg/kg s.c. twice daily, Apo2L/TRAIL 50 mg/kg s.c. every other day, from day 2) | TUNEL-positive cells (A375 cells)
CC(=O)NC(C(=O)O)C(C)(C)SN=O (racemic) [SNAP, S-nitroso-N-acetyl-D,L-penicillamine, reference compound] | inhibited | inhibited | inhibit | – | – | – | – | – | –
B1 | – | – | – | completely resistant | completely resistant | completely resistant | Tumor regression was observed | 89.4% | 5.4%
